T1: CD123 (Homo sapiens (Human), UniProt P26951 19-305, limits assumed)
T1 construct: also called CD123-Signal
T1 sequence: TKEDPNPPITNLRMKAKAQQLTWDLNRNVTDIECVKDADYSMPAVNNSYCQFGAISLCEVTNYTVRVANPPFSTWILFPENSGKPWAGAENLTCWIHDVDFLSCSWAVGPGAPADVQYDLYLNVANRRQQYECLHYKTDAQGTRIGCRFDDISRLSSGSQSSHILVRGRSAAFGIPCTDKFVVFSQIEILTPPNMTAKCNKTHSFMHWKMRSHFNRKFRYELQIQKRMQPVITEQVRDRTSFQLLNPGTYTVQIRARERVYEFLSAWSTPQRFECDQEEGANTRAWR

B1: D domain SEQ ID NO: 670 (designed binder)
chain: MGSWWEFEDRLWAIEQRLDALGGSEAELAVFENSIAKFEDMLQVYKGKGNPEVEALHEEADAIIWELYAYRHN
B2: D domain SEQ ID NO: 661 (designed binder)
chain: MGSWWEFEQRLDAIETRLWALGGSEAELAYFEHIIADFEDELQIYKGKGNPEVEALGWEAFAIDGELTAYRHN
B3: D domain SEQ ID NO: 667 (designed binder)
chain: MGSWHEFIWRLDAIEERLWALGGSEAELAWFETEIATFEAQLQDYKGKGNPEVEALEWEAIAIAWELDAYRHN
B4: D domain SEQ ID NO: 660 (designed binder)
chain: MGSWYEFEQRLGAIEERLWALGGSEAELAAFEDIIAYFEYQLQSYKGKGNPEVEALDEEAWAIDDELWAYRHN
B5: D domain SEQ ID NO: 673 (designed binder)
chain: MGSWAEFEDRLAAIERRLEALGGSEAELADFESSIAWFEPDLQYYKGKGNPEVEALMYEAEAIFSELYAYRHN
B6: D domain SEQ ID NO: 664 (designed binder)
chain: MGSWVEFWDRLDAIEERLWALGGSEAELAEFEFMIAMFEQHLQEYKGKGNPEVEALIPEAGAIDKELTAYRHN
B7: D domain SEQ ID NO: 671 (designed binder)
chain: MGSWWEFEDRLWAIDRRLMALGGSEAELAVFEQMIAHFEQILQVYKGKGNPEVEALHFEAHAIGMELAAYRHN
B8: D domain SEQ ID NO: 666 (designed binder)
chain: MGSWYEFWRRLDAIEERLWALGGSEAELAMFETDIAGFEWMLQLYKGKGNPEVEALEHEAWAINSELDAYRHN
B9: D domain SEQ ID NO: 676 (designed binder)
chain: MGSWWEFSWRLEAIETRLDALGGSEAELAFFEMDIAWFEQDLQLYKGKGNPEVEALEEEAYAIYEELEAYRHN
B10: D domain SEQ ID NO: 675 (designed binder)
chain: MGSWYEFEDRLAAIEARLWALGGSEAELADFEEEIAYFEHGLQWYKGKGNPEVEALESEAMAIIDELHAYRHN
B11: D domain SEQ ID NO: 662 (designed binder)
chain: MGSWFEFPYRLEAIEERLYALGGSEAELAQFEQFIAWFEMDLQDYKGKGNPEVEALWFEANAIVEELDAYRHN
B12: D domain SEQ ID NO: 669 (designed binder)
chain: MGSWFEFQWRLEAIEDRLWALGGSEAELAEFETIIAGFEEQLQVYKGKGNPEVEALEEEAMAIQTELHAYRHN
B13: D domain SEQ ID NO: 674 (designed binder)
chain: MGSWWEFYDRLTAIEARLWALGGSEAELADFEEGIADFEYDLQDYKGKGNPEVEALFWEAWAIQSELTAYRHN
B14: D domain SEQ ID NO: 668 (designed binder)
chain: MGSWYEFYWRLEAIEERLWALGGSEAELAEFEKAIATFEDQLQTYKGKGNPEVEALETEALAIHAELEAYRHN
B15: D domain SEQ ID NO: 672 (designed binder)
chain: MGSWWEFLDRLEAIEYRLQALGGSEAELAVFEWEIAMFEDHLQGYKGKGNPEVEALHSEAHAIISELSAYRHN
B16: D domain SEQ ID NO: 677 (designed binder)
chain: MGSWEEFFFRLEAIDDRLYALGGSEAELALFEEVIAYFEQDLQWYKGKGNPEVEALYVEAYAIQEELYAYRHN
B17: D domain SEQ ID NO: 665 (designed binder)
chain: MGSWDEFDARLWAIEERLWALGGSEAELAEFEFMIAAFEDVLQEYKGKGNPEVEALMGEANAIVMELDAYRHN
B18: D domain SEQ ID NO: 663 (designed binder)
chain: MGSWVEFYDRLEAIEIRLWALGGSEAELADFESFIAHFEDDLQAYKGKGNPEVEALMDEANAIVFELDAYRHN

What follows are binders tested against T1, CD123 (assay: ELISA, format not described).
Parameters: unit not given here

Compared with B1, B2 is higher in ELISA_avg: 4.4 for the first, 4.7 for the second.

Compared with B3, B4 is higher in ELISA_avg: 3.3 for the first, 10.6 for the second.

Compared with B5, B6 is higher in ELISA_avg: 4.2 for the first, 10 for the second.

Going from B7 to B8, the ELISA_avg falls from 4.6 to 3.6.

First: B9
Second: B10
The ELISA_avg of the first is lower: 3.3 for the first, 3.8 for the second.

First: B11
Second: B12
The ELISA_avg of the first is lower: 3.1 for the first, 3.4 for the second.

Compared with B13, B14 is higher in ELISA_avg: 3.2 for the first, 3.7 for the second.

Compared with B15, B16 is higher in ELISA_avg: 3.1 for the first, 3.2 for the second.

Compared with B17, B18 is lower in ELISA_avg: 4.3 for the first, 4 for the second.

From patent publication US20250026849A1 (ARCELLX, published 2025)
